In patent publication US20170210810A1, “BIOMARKER PROFILES FOR PREDICTING OUTCOMES OF CANCER THERAPY WITH ERBB3 INHIBITORS AND/OR CHEMOTHERAPIES” (Merrimack Pharmaceuticals, Inc., priority 2013, published 2017):

How the values were obtained:
[1] = test system: EGFR-wild-type non-small cell lung cancer (NSCLC)
Description: A group participating in the study was comprised of 132 patients with wild-type epidermal growth factor receptor (EGFR) who progressed on ≧1 platinum-based standard of care therapy and were EGFR tyrosine kinase inhibitor (TKI)-naïve. […] Data were collected at 10+ months.
BM+ patients were defined as having detectable HRG mRNA by RNA-ISH (RNA in situ hybridization) as described above in Example 1.

[2] = cited from earlier work
[3] = test system: locally advanced or metastatic ER+ and/or PR+, HER2 negative breast cancer; assay: Randomized, double-blind phase 2 trial of exemestane +/- MM-121 in breast cancer (Example 6)
Description: This population is for safety analyses, as well as the primary population for all efficacy parameters.
Analyses were performed on the five pre-specified primary biomarkers, all mechanistically linked to ErbB3 signaling, as measured in FFPE archived tissue blocks. Biomarkers were assessed based on local HR scans. Thresholds for defining biomarker profile positive populations were chosen based on these scans and on results obtained in the above-described ovarian cancer trial. A single two-variable model was assessed using HRG and ErbB2, based on the findings from the above-described ovarian cancer trial. HRs in the biomarker profile positive and negative populations were calculated using a Cox proportional hazard model that included biomarker groups by treatment and stratification factors as additive factors. Only patients with non-missing biomarkers were used in each calculation.
Both assays were performed using FFPE archived tissue blocks.
Biomarker profile positive (BM+) and biomarker profile negative (BM−) subpopulations were defined by dichotomizing biomarker values for HRG and ErbB2. For HRG, a cut point of −5 (RT-PCR score) was chosen based on the local HR scan (value at which HR=1). […] Two separate analyses of ErbB2 levels are provided: (1) ErbB2 levels based on the qIHC assay; and (2) for patients where qIHC data are missing, but HCT results were available, ErbB2 levels were adapted from the reported HCT results, with a score of HCT 2+ being deemed equal to log10(ErbB2)=5.1.
All efficacy analyses for the BM subgroups were performed using a Cox proportional hazard model that included both of the pre-specified strata as additive effects in combination with the treatment effect. The ErbB2 low & HRG high BM+ subpopulation was defined as patients with log10(ErbB2)≦5.1 and HRG RT-PCR>−5.

[4] = test system: advanced, platinum-resistant ovarian cancer; assay: Clinical trial in ovarian cancer: paclitaxel with or without MM-121 (Example 5); type: in vivo, human
Description: A clinical trial was performed that was designed to allow, inter alia, determination of associations between biomarker profiles and clinical responses. Biomarker data were measured in pre-treatment biopsies and (when available) in archived tumor samples. Results pertaining to predictive biomarkers measured in pre-treatment biopsies are described herein.
In total, six primary biomarkers were measured using 15 assays. For the 5 chromogenic assays (qIHC and RNA-ISH), two different overall scores were used: composite score and top-10 score. Accordingly, 20 different variables were assessed at this stage. A Cox proportional hazard model was used to rank the biomarkers. This method determines if PFS varies with biomarker values differently in the treatment arm relative to the control arm. A P-value cutoff of 0.4 was used to determine which biomarkers would be prioritized for subsequent bivariate analyses.
Based on these two thresholds, a biomarker profile positive (BM+) subpopulation is defined for subsequent analyses as: (ErbB2 levels≦log10 5.1) AND (HRG score≧1) (“ErbB2 low” AND “HRG positive”). Accordingly, a biomarker profile negative (BM−) subpopulation is defined as (ErbB2 levels >log10 5.1) OR (HRG score<1) This definition results in a BM+ prevalence of 34% in the clinical trial population.
In FIG. 8G (progression free survival at 10+ months) and FIG. 8H (overall survival at 10+ months), the treatment arm is represented by a blue line and the control arm is represented by a black line.

[5] = best overall response, BM+ (heregulin+) as worded in FIG. 11 legend
[6] = safety population, count (percentage)

Molecule: C#Cc1cccc(Nc2ncnc3cc(OCCOC)c(OCCOC)cc23)c1 [erlotinib]
- complete response (CR) [1, 5]: none
- partial response (PR) [1, 5]: 6.7%
- progressive disease (PD) [1, 5]: 53.3%
- PFS of BM− (heregulin−) patients compared with BM+ (heregulin+) patients ([1]; patients treated with erlotinib alone (FIG. 12C)): much longer

Molecule: C=C1C[C@@H]2[C@H](CC[C@]3(C)C(=O)CC[C@@H]23)[C@@]2(C)C=CC(=O)C=C12 [exemestane, 6-methylenandrosta-1,4-diene-3,17-dione, reference compound]
- solubility in N,N-dimethylformamide ([2]; N,N-dimethylformamide): freely soluble
- solubility in methanol ([2]; methanol): soluble
- solubility in water ([2]; water): practically insoluble
- objective response rate ([3]; BM+ patients): 0%
- objective response rate ([3]; BM− patients): 5.9%
- time within which all treated patients exhibited disease progression ([3]; biomarker profile positive tumors (FIG. 10B)): ≤ 20 weeks
- PFS of BM− (heregulin−) patients compared with BM+ (heregulin+) patients ([3]; patients treated with exemestane alone (FIG. 10E)): much longer
- Subjects with CTCAE grade 3 or higher TEAE [3, 6]: 15 ( 25.4)
- Subjects with TEAE leading to death [3, 6]: 1 ( 1.7)
- Subjects with TEAE leading to dose discontinuation [3, 6]: 0
- Subjects with TEAE related to study drug (a) [3, 6]: 32 ( 54.2)
- Subjects with at least one AE [3, 6]: 51 ( 86.4)
- Subjects with at least one TEAE [3, 6]: 50 ( 84.7)
- Subjects with serious TEAE [3, 6]: 11 ( 18.6)

Molecule: CC(=O)O[C@H]1C(=O)[C@@]2(C)[C@H]([C@H](OC(=O)c3ccccc3)[C@]3(O)C[C@H](OC(=O)[C@H](O)[C@@H](NC(=O)c4ccccc4)c4ccccc4)C(C)=C1C3(C)C)[C@]1(OC(C)=O)CO[C@@H]1C[C@@H]2O [paclitaxel, Paclitaxel, reference compound]
- PFS of BM− (heregulin−) patients compared with BM+ (heregulin+) patients ([4]; patients treated with paclitaxel alone (FIG. 8I)): much longer

B1: MM-121: anti-ErbB3 monoclonal antibody having VH and VL sequences as shown in SEQ ID NOs: 1 and 2 (antibody, V domains shown)
VH: EVQLLESGGGLVQPGGSLRLSCAASGFTFSHYVMAWVRQAPGKGLEWVSSISSSGGWTLYADSVKGRFTISRDNSKNTLYLQMNSLRAEDTAVYYCTRGLKMATIFDYWGQGTLVTVSS
VL: QSALTQPASVSGSPGQSITISCTGTSSDVGSYNVVSWYQQHPGKAPKLIIYEVSQRPSGVSNRFSGSKSGNTASLTISGLQTEDEADYYCCSYAGSSIFVIFGGGTKVTVL
- HR (trt:ctrl) ([4]; BM+, subgroup ErbB3 score ≧2): 0.33
- HR (trt:ctrl) ([4]; BM+, subgroup ErbB4 score 0): 0.13
- HR (trt:ctrl) ([4]; BM−, subgroup ErbB4 score ≧1): 2.20
- cumulative HR ([4]; patients with detectable levels of HRG and low levels of ErbB2): < 0.5
- PFS versus erlotinib alone ([1]; unselected overall population (FIG. 12A)): overall better outcomes
- HR ([3]; Group ErbB2 < 5.1 (HCT), BM negative): 3.00
- HR ([3]; Group ErbB2 < 5.1 (HCT), BM population): 0.82
- HR ([3]; Group ErbB2 < 5.1 (HCT), BM positive): 0.62
- HR ([3]; Group ErbB2 < 5.1 (qIHC) & HRG > −5, BM negative): 1.30
- HR ([3]; Group ErbB2 < 5.1 (qIHC) & HRG > −5, BM population): 0.86
- HR ([3]; Group ErbB2 < 5.1 (qIHC) & HRG > −5, BM positive): 0.32
- HR ([3]; Group ErbB2 < 5.1 (qIHC), BM negative): 3.00
- HR ([3]; Group ErbB2 < 5.1 (qIHC), BM population): 1.16
- HR ([3]; Group ErbB2 < 5.1 (qIHC), BM positive): 0.84
- HR ([3]; Group HRG > −5, BM negative): 0.99
- HR ([3]; Group HRG > −5, BM population): 0.68
- HR ([3]; Group HRG > −5, BM positive): 0.35
- benefit (PFS) from adding MM-121 to exemestane therapy ([3]; biomarker negative patient population (FIG. 10A)): little if any benefit
- benefit (PFS) from adding MM-121 to exemestane therapy ([3]; biomarker positive population (FIG. 10B)): dramatic benefit
- decrease in risk of death ([3]; full patient population, overall survival, vs standard-of-care arm): 59%
- decrease in risk of progression ([3]; heregulin-positive patients, n=34, final analysis): 74%
- HR ([3]; no selection, BM population N=115): 0.75
